Assay results published in patent US6710030 (dated 2004).
“And” between values parts separate entries of the source, which are not always exact repeats. Equal entries are not always repeated.

Columns and labels:
[1] = target: T1, human platelet membrane glycoprotein (GP)IIb/IIIa (fibrinogen receptor, integrin αIIbβ3) on human platelets (human, UniProt P08514 32-1039; P05106 27-788); assay: Scatchard analysis of CN binding to unactivated human platelets
T1 construct: whole, on cells

[2] = target: T1, human platelet membrane glycoprotein …
[3] = target: canine platelet (GP)IIb/IIIa on canine platelets (canine, UniProt Q9TUN8 32-1036; A0A8I3PMU9 158-919)

B1: contortrostatin (CN), homodimeric disintegrin purified from Agkistrodon contortrix contortrix (south (ligand)
chain: DAPANPCCDAATCKLTTGSQCADGLCCDQCKFMKEGTVCRRARGDDLDDYCNGISAGCPRNPFHA
notes: also called CTTX
For B1, the Kd [1] was 0.037 µM, the IC50 [2] was 25 nM and 0.4 µg/mL and the IC50 [3] was 0.24 mg/L.
